Source: patent US20240043859A1, “HERBICIDE-RESISTANT PROTEIN, AND GENE AND USE THEREOF” (QINGDAO KINGAGROOT CHEMICAL COMPOUND CO., LTD., priority 2020, published 2024)
Entries after “also recorded” stand apart in the source; their conditions may differ.

Experiments:
[1] = assay type: cell-based, Escherichia coli
Procedure: To transform the plasmids to be tested, an AAD12-expressing plasmid and a blank control plasmid pET15b were respectively transformed into the protein expression E. coli BL21(DE3) strains. A monoclone was selected and inoculated in a 10 ml centrifuge tube with 3 ml LB medium, and cultivated at 37° C., 200 rpm for 6-8 hours. […] The temperature was switched to 28° C. and the cultivation continued overnight. In the next morning, 200 μL of each bacteria solution was taken and centrifuged to precipitate thallus, 180 μL of the supernatant was taken and added in a 96-well plate, and 20 μL of borate buffer of pH 10 was added. Then the mixture was added with 2 μL of 8% potassium ferricyanide and mixed well, followed by adding 2 μL of 2% 4-aminoantipyrine, and placed at room temperature for 5 min to observe the color and detect the A510 value. […]

[2] = Chromogenic reaction of degrading herbicides in bacteria: 2,4-D; assay type: cell-based, Escherichia coli; settings: recombinant E. coli expressing the gene, 2,4-D added to the medium, red = phenols
Procedure: To transform the plasmids to be tested, an AAD12-expressing plasmid and a blank control plasmid pET15b were respectively transformed into the protein expression E. coli BL21(DE3) strains. A monoclone was selected and inoculated in a 10 ml centrifuge tube with 3 ml LB medium, and cultivated at 37° C., 200 rpm for 6-8 hours. The culture medium was added with 0.1 mM IPTG and 2 mM α-ketoglutaric acid, and then 0.5 mM 2,4-D. The temperature was switched to 28° C. and the cultivation continued overnight. In the next morning, 200 μL of each bacteria solution was taken and centrifuged to precipitate thallus, 180 μL of the supernatant was taken and added in a 96-well plate, and 20 μL of borate buffer of pH 10 was added. Then the mixture was added with 2 μL of 8% potassium ferricyanide and mixed well, followed by adding 2 μL of 2% 4-aminoantipyrine, and placed at room temperature for 5 min to observe the color and detect the A510 value.
The bacteria solution also appeared red when 2,4-D was directly added into the medium of AAD12-expressing bacteria, as shown in FIG. 1.
2,4-D was added into these bacteria solutions of AAD gene-expressing recombinant E. coli and cultivation was continued for color development.

Arabidopsis thaliana = assay: Herbicide resistance of transgenic Arabidopsis thaliana seedlings on plate medium (root growth); assay type: in vivo; settings: Arabidopsis overexpressing the gene
Procedure: Expression in Arabidopsis thaliana was regulated by its AtUbi10 Arabidopsis thaliana ubiquitin promoter and the MAS (mannopine synthase) terminator. Hygromycin resistance gene (HygR=hpt) served as the selection marker.
Preparation of Agrobacterium infection solution: An activated Agrobacterium (GV3101) monoclone was picked and inoculated in 30 ml YEP liquid medium [yeast powder 10 g/L, tryptone 10 g/L, NaCl 5 g/L, 25 mg/L Rifampicin and 50 mg/L Kanamycin], shaking-cultured at 200 rmp/min, 28° C. overnight until the OD600 was about 1.0-1.5, then centrifuged at 6000 rmp/min for 10 min to collect the bacteria, and the supernatant was discarded. Arabidopsis thaliana infection solution (sucrose 50 g/L, Silwet L-77 300 μL/L, no need to adjust pH) was used to resuspend the cells to OD600=0.8 for later use.
Genetic transformation of Arabidopsis thaliana by flower dipping: Before transformation of Arabidopsis thaliana plants, attentions were paid to whether the plants were growing well, the inflorescences were abundant, and no stress response occurred. The first transformation was performed when plants were about 20 cm high. Plants could be properly watered if the soil was dry. The grown siliques were cut off with scissors the day before transformation. The inflorescences of the plants to be transformed were soaked in the above-mentioned Agrobacterium solution for 30 seconds to 1 minute, which was stirred gently during the period. And a layer of liquid film should appear on the infiltrated plant. The transformed plants were cultured in a dark environment for 24 hours, and then taken out and grown in a normal light environment. A second transformation could be performed in the same way a week later.
Seeds were treated with disinfectant for 5 min, washed with sterile water for 5 times and then one part was spread on MS transgenic screening medium (containing 30 μg/mL hygromycin, 100 μg/mL carbenicillin) to screen transgenic seedlings, and the other part was spread on MS medicated medium [containing 250 μg/mL Cefotaxime sodium and 0.3 μM 2,4-D] to screen herbicide-resistant seedlings at mean time. The petri dish spread with seeds was placed at 4° C. for vernalization for 3 days, and taken out to a illumination incubator for cultivation (temperature of 22° C., 16 hours of light, 8 hours of darkness, light intensity of 100-150 μmol/m^2/s, humidity of 75%). After one week, it was observed that the roots of the wild-type control seedlings were not elongated and their growth was inhibited, while the transgenic seedlings had normal root growth, showing drug resistance. The transgenic positive seedlings and herbicide-resistant seedlings were photographed and transplanted into small pots filled with soil for cultivation.
The transgenic lines with the nine vectors, pQY2309, pQY2310, pQY2311, pQY2312, pQY2313, pQY2314, pQY2315, pQY2316 and pQY2317, overexpressing AAD gene in the T2 generation were further tested on plate medium for their resistance to 2,4-D, 2,4-DB sodium and MCPA herbicide. Two events were tested for each transformant.

B1: QYD75: AAD-like enzyme, SEQ ID NO. 149 (protein)
chain: MPSFNIAPIDASFGAVVTGIRLATVDDERWRELHQAWLEHALLIFPGQHLSRDEQISFARRFGPLEFDMAAISNVKSDGTLRIEADNDDVVKILKGNMGWHADSTYMSVQAKGAVFSAEVVPAAGGQTGFADMRAAYDALDDGLRTKVETLAAHHSLHYSQAKLGHQPEAGSAYSGYGFHAGPVPLRPLVKTHPETGRKSLLIGRHAHNIPGLDPDESERLLDELVDFACQAPRVYHHSWSAGDVVIWDNRCLLHRATPWDMTQPRVMWHSRIAGDPVAEASLN
modifications: Synthetic polypeptide, QYD75, D75
Chromogenic reaction of degrading herbicides in bacteria: MCPA [1]: Yes | Chromogenic reaction of degrading herbicides in bacteria: 2,4-D [2]: Yes | Chromogenic reaction of degrading herbicides in bacteria: 2,4-D ([2]; listed as D75): could degrade 2,4-D; also recorded: capable of degrading 2,4-D

B2: QYD3: AAD-like candidate enzyme; 100.00% identical to US20160002662-0002 (AAD13) (protein)
chain: MSPAFDIAPLDATFGAVVTGVKLADLDDAGWLDLQAAWLEYALLVFPDQHLTREQQIAFARRFGPLEFEMAAISNVRPDGSLRVESDNDDMMKILKGNMGWHADSTYMPVQAKGAVFSAEVVPSVGGQTGFADMRAAYDALDEDLKARVETLQARHSLHYSQSKLGHQTKAADGEYSGYGLHDGPVPLRPLVKIHPETGRKSLLIGRHAHAIPGLEPAESERLLQQLIDFACQPPRIYHHDWAPGDAVLWDNRCLLHQATPWDMTQKRIMWHSRIAGDPASETALAH
modifications: Synthetic polypeptide, QYD03, D3
Chromogenic reaction of degrading herbicides in bacteria: 2,4-D [2]: Yes | Resistance of transgenic Arabidopsis thaliana: 2,4-D (Arabidopsis thaliana): Yes

B3: QYD4: AAD-like candidate enzyme; 99.65% identical to US20100251432-0002 (AAD13 mutant) (protein)
chain: MSPAFDIAPLDATFGAVVTGVKLADLDDAGWLDLQAAWLEYALLVFPDQHLTREQQIAFARRFGPLEFAMAAISNVRPDGSLRVESDNDDMMKILKGNMGWHADSTYMPVQAKGAVFSAEVVPSVGGQTGFADMRAAYDALDEDLKARVETLQARHSLHYSQSKLGHQTKAADGEYSGYGLHDGPVPLRPLVKIHPETGRKSLLIGRHAHAIPGLEPAESERLLQQLIDFACQPPRIYHHDWAPGDAVLWDNRCLLHQATPWDMTQKRIMWHSRIAGDPASETALAH
modifications: Synthetic polypeptide, QYD04, D4
Chromogenic reaction of degrading herbicides in bacteria: 2,4-D [2]: Yes | Resistance of transgenic Arabidopsis thaliana: 2,4-D (Arabidopsis thaliana): Yes

B4: QYD5: AAD-like candidate enzyme, SEQ ID NO. 9 (protein)
chain: MPFAGELPSAIETQVSKILALIAAYRHRSPNVPDRFAQFVPELEKQLADTVSKKEPVRFVLPAFPFKAPVEGNKRKTLGSLPDKAEEIALKTLDGFADSIAEIYEAGATVVLVSDASVYGDLLNVADAEAFTYHQELQKLASSLGLEHLEFVRPGALAGIAPKDAHTLEEYSDHVNKTRNLLDGPLAQDVNPSEDENVQATSKHYDTALPTTDDPEAFKTAMLKRGKAYAKLIASSSETTIRLSIHESNNVGKITLDLFPPSTNPDFITPWHGAVAVLADASVRIVDASTVDMTKFEVITNAEGRPWLLREKSELFNWFGMELDFEPLFPCGMVVRPRNGYGPYKFEDVNMKQVRRLALSTAPLLLRGFTMEIEKEVFRQKARELGEIQMWPFGDILEVRENADFNMNNVLTREAMPFHYDGVFKTIQDEKTGEWISTPPLFQMFRNRAASQQKGGLTLFSSSRNLIPLLGPDSIPLDELRKLKWKTFTVVNEAFGGHELLLPFIASHPETGADTFRFHEPWPESKCISGSSEPTIVQVVGWPAAESDALCAKLTDLLYDRRVAYRHQWTAGDFIFNDNATTHHTRTAFENGHREHWRVHVS
modifications: Synthetic polypeptide, QYD05, D5
Resistance of transgenic Arabidopsis thaliana: 2,4-D (Arabidopsis thaliana): Yes

B5: QYD2: AAD-like candidate enzyme; 100.00% identical to US20170009214-0019 (AAD2) (protein)
chain: MTIAIRQLQTHFVGQVSGLDLRKPLTPGEAREVESAMDKYAVLVFHDQDITDEQQMAFALNFGQREDARGGTVTKEKDYRLQSGLNDVSNLGKDGKPLAKDSRTHLFNLGNCLWHSDSSFRPIPAKFSLLSARVVNPTGGNTEFADMRAAYDALDDETKAEIEDLVCEHSLMYSRGSLGFTEYTDEEKQMFKPVLQRLVRTHPVHRRKSLYLSSHAGKIASMSVPEGRLLLRDLNEHATQPEFVYVHKWKLHDLVMWDNRQTMHRVRRYDQSQPRDMRRATVAGTEPTV
modifications: Synthetic polypeptide, QYD02, D2
Chromogenic reaction of degrading herbicides in bacteria: 2,4-D [2]: Yes | Resistance of transgenic Arabidopsis thaliana: 2,4-D (Arabidopsis thaliana): Yes

B6: QYD31: AAD-like candidate enzyme, SEQ ID NO. 61 (protein)
chain: MKVEHLTEATFGSVVTDIDLETIDDAEWRELYDLWIERALLVFPGAFLSAEGQDAFARRFGDLEFSRAALSNIGKDGKVHHENDDEVVKSLRGNEGWHIDSTYMPVQAKGAVFSAEIVPSSGAATGWADMRSAYEELDAETRERLADLTAYHSLYYSQGRAGNLPDEPNEDGTYNLYGYHDMEVSLRPLIKIHPITERPSLLIGRHAHDIVGMDPAESESLLDDLNDWACQPPRTYHHQWDVGDAVLWDNRRLQHRGTPFDMTEPRRMWHTRIAGDPSSELALNHHPDTVPSDDVERHPTGTWAC
modifications: Synthetic polypeptide, QYD31, D31
Resistance of transgenic Arabidopsis thaliana: 2,4-D (Arabidopsis thaliana): Yes

B7: QYD14: AAD-like candidate enzyme, SEQ ID NO. 27 (protein)
chain: MTTTKTKSFITIKNKRFHYIWLRENCPSCRYAAPYQQLYDPNISDRPEYPQPLSVELNEETLTIDWDETPAHRSVFSVEWLLKNSYDPQPELESDNYIFWERAKLELKPPQTYNAETINNDGWMEQLFSLGFVILENIPPEKLESFLSSIGPIFNADYGTIMPLETRDKTTESLPSRDGCPLPPHHDLSYWGGHRLVEFLYCVENQNSGGESTLVDGFQVAQDFSQDYPQYYQTLLETPVQFWLVDKTHQYRFCNIATILECDRYGNLTTVRFSKRNCRPHLPFEQLEDFYQAYHTFFHYLKKNDYKHQFQLRSHNCLLFQNFRILHGRTAFDPALGKRKLNSGYVDWNFFVGRRNFQ
modifications: Synthetic polypeptide, QYD14, D14
Resistance of transgenic Arabidopsis thaliana: 2,4-D (Arabidopsis thaliana): Yes

B8: QYD1: AAD-like candidate enzyme; 100.00% identical to US20170022515-0011 (AAD1) (protein)
chain: MAHAALSPLSQRFERIAVQPLTGVLGAEITGVDLREPLDDSTWNEILDAFHTYQVIYFPGQAITNEQHIAFSRRFGPVDPVPLLKSIEGYPEVQMIRREANESGRVIGDDWHTDSTFLDAPPAAVVMRAIDVPEHGGDTGFLSMYTAWETLSPTMQATIEGLNVVHSATRVFGSLYQAQNRRFSNTSVKVMDVDAGDRETVHPLVVTHPGSGRKGLYVNQVYCQRIEGMTDAESKPLLQFLYEHATRFDFTCRVRWKKDQVLVWDNLCTMHRAVPDYAGKFRYLTRTTVGGVRPAR
modifications: Synthetic polypeptide, QYD01, D1
Chromogenic reaction of degrading herbicides in bacteria: 2,4-D [2]: Yes | Resistance of transgenic Arabidopsis thaliana: 2,4-D (Arabidopsis thaliana): Yes
